Consider one molecule from patent US9057734B2, “Optogenetic probes for measuring membrane potential” (President and Fellows of Harvard College, priority 2010, dated 2015).

One data set deals with HEK cells. The experiment in a line: Photocurrents under 640 nm illumination in voltage-clamped cells. In kind it is cell-based, human. The protocol:
Measurements of photocurrents were performed on HEK cells held in voltage clamp at 0 mV while being exposed to brief (200 ms) pulses of illumination at 640 nm at an intensity of 1800 W/cm^2.

Data set [1] in a line: Relative photostability of Arch 3 and eGFP in Arch 3-eGFP fusion. Format: physicochemical. The method, then:
To perform a direct comparison of photostability of Arch 3 and eGFP we studied the photobleaching of the Arch 3-eGFP fusion. This strategy guaranteed a 1:1 stoichiometry of the two fluorophores, simplifying the analysis. The experiments were performed on permeabilized cells, in the microscope, with video recording as the cells photobleached. We first recorded a movie of photobleaching of Arch 3 under 640 nm illumination; then on the same field of view we recorded photobleaching of eGFP under 488 nm illumination, with illumination intensity adjusted to yield approximately the same initial count rate as for Arch 3. Fluorescence background levels were obtained from nearby protein-free regions of each movie and were subtracted from the intensity of the protein-containing regions. The area under each photobleaching timetrace was calculated, yielding an estimate of the total number of detected photons from each fluorophore. The eGFP emission (λmax=509 nm) and the Arch emission (λmax=687 nm) were collected through different emission filters, so the raw counts were corrected for the transmission spectra of the filters and the wavelength-dependent quantum yield of the EMCCD camera. The result was that the relative number of photons emitted prior to photobleaching for eGFP:Arch 3 WT was 3.9:1, and for eGFP:Arch D95N this ratio was 10:1.

The nature of data set [2]: Spectroscopic characterization of purified Arch WT and D95N. Format: physicochemical. The protocol: FIGS. 17A-17C show pH-dependent spectra of Arch 3 WT and D95N. […] At neutral pH, Arch absorbed maximally at 558 nm. Fluorescence emission (dashed line) was recorded on 2 μM protein solubilized in 1% DM, with λexc=532 nm. […] The absorption maximum was at 585 nm. […] Singular Value Decomposition of absorption spectra between 400-750 nm was used to calculate the fraction of the SB in the protonated state as a function of pH. The result was fit to a Hill function to determine the pKa of the SB.
Arch and its D95N mutant were expressed and purified from E. coli, following Bergo, V., et al. (Conformational changes detected in a sensory rhodopsin II-transducer complex. J. Biol. Chem. 278, 36556-36562 (2003)). Briefly, E. coli (strain BL21, pet28b plasmid) was grown in 1 L of LB with 100 μg/mL kanamycin, to an O.D 600 of 0.4 at 37° C. All-trans retinal (5 μM) and inducer (IPTG 0.5 mM) were added and cells were grown for an additional 3.5 hours in the dark. Cells were harvested by centrifugation and resuspended in 50 mM Tris, 2 mM MgCl2 at pH 7.3 and lysed with a tip sonicator for 5 minutes. The lysate was centrifuged and the pellet was resuspended in PBS supplemented with 1.5% dodecyl maltoside (DM). The mixture was homogenized with a glass/teflon Potter Elvehjem homogenizer and centrifuged again. The supernatant was concentrated and washed using a centricon 30k MWCO filter to a final volume of 3 mL.
The absorption spectra of purified Arch 3 WT and D95N were determined using an Ocean Optics USB4000 spectrometer with a DT-MINI-2-GS light source. Absorption spectra, for Arch 3 WT and D95N, were measured as a function of pH between pH 6 and 11. To determine the fluorescence emission spectra, proteins in a quartz cuvette were illuminated with the uncollimated beam of a 100 mW, 532 nm laser (Dragon Lasers, 532GLM100) or a 25 mW, 633 nm HeNe laser (Spectra-Physics). Scattered laser light was blocked with a 532 nm Raman notch filter (Omega Optical, XR03) or a 710/100 emission filter (Chroma), and fluorescence was collected perpendicular to the illumination with a 1000 micron fiber, which passed the light to an Ocean Optics QE65000 spectrometer. Spectra were integrated for 2 seconds.
The fluorescence quantum yields of Arch 3 WT and D95N were determined by comparing the integrated emission intensity to emission of a sample of the dye ALEXA FLUOR® 647 Conjugate. Briefly, the concentrations of micromolar solutions of dye and protein were determined using a visible absorption spectrum. […] The fluorescence emission spectra of dye and protein samples were measured with 633 nm excitation. The quantum yield was then determined by the formula
where Fl is the integrated fluorescence from 660 to 760 nm, ε is the extinction coefficient at 633 nm and c is the concentration.

B1: Arch 3 WT: Archaerhodopsin 3, light-driven proton pump from Halorubrum sodomense, used as fluorescent voltage indicator (protein)
chain: MDPIALQAGYDLLGDGRPETLWLGIGTLLMLIGTFYFLVRGWGVTDKDAREYYAVTILVPGIASAAYLSMFFGIGLTEVTVGGEMLDIYYARYADWLFTTPLLLLDLALLAKVDRVTIGTLVGVDALMIVTGLIGALSHTAIARYSWWLFSTICMIVVLYFLATSLRSAAKERGPEVASTFNTLTALVLVLWTAYPILWIIGTEGAGVVGLGIETLLFMVLDVTAKVGFGFILLRSRAILGDTEAPEPSAGADVSAAD
modifications: Halorubrum sodomense
notes: Archaerhodopsin 3, light-driven proton pump from Halorubrum sodomense, used as fluorescent voltage indicator
Consider B1, for which the “photocurrents induced by imaging laser” value in the data set on HEK cells (640 nm, HEK cells) is given as 10-20 pA. In the data set on HEK cells (illumination at 640 nm), the “photocurrent / photoinduced proton pumping” value is reported as “retains the photoinduced proton-pumping”. The “photons prior to photobleaching relative to eGFP” value in data set [1] is given as “approximately 25%”. In addition, in data set [2] (calibrated assuming peak extinction coefficient of Bacteriorhodopsin, 63,000 M^−1 cm^−1), the ε633 was 6,300 M^−1cm^−1. Also, in data set [2] (comparison to Alexa 647, excitation at 633 nm, listed as Arch WT), the QY is listed as 9 × 10^−4.
